Experimental data published in US20230312722A1 (NONA BIOSCIENCES SUZHOU, published 2023).

How the values were obtained:
[1] = molecular target: T1, B7-H4 (Acro Biosystems, #B74-H82E2) (UniProt Q7Z7D3 29-258); assay: BLI epitope competition; 1st Ab = row; competitor (2nd Ab) PR002421; inhibition of the 2nd Ab signal
T1 construct: Bought protein; also called B7-H4 captured on SA sensor
T1 sequence (looked up): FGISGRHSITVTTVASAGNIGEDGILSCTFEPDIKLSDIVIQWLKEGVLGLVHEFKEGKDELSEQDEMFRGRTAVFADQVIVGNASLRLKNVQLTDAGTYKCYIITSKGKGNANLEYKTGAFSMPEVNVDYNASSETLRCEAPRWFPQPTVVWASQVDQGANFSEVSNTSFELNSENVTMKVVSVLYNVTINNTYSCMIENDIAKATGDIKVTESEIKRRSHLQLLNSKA
Procedure: Step one, acquisition of 100% signal of antibodies: B7-H4 (Acro Biosystems, #B74-H82E2-200 μg) was captured at a capture height of 0.25 nm using an SA sensor (Fortebio, #18-5019). The sensor was equilibrated in a buffer for 120 s and then immersed in each antibody diluted to 100 nM for 240 s, and the final signal of the antibody binding to B7-H4 was recorded as the 100% signal of the antibody. Step two, epitope competition experiment: B7-H4 was captured using an SA sensor at a capture height of 0.25 nm. The sensor was immersed in a primary antibody (at a concentration of 100 nM) for 240 s, and then the SA sensor was immersed in a mixture of the primary and secondary antibodies (both at a final concentration of 100 nM) for 240 s, and the difference in signals after immersion of the sensor in the antibody mixture was recorded as the signal of the antibody as the secondary antibody. The inhibition rate was calculated according to the following formula: […]

[2] = molecular target: T2, mouse B7H4 on the cell surface (mouse, UniProt Q7TSP5 25-257); assay: FACS, CHOK1/m B7H4 cells
T2 construct: whole, on cells; also called CHOK1/m B7H4
T2 sequence (looked up): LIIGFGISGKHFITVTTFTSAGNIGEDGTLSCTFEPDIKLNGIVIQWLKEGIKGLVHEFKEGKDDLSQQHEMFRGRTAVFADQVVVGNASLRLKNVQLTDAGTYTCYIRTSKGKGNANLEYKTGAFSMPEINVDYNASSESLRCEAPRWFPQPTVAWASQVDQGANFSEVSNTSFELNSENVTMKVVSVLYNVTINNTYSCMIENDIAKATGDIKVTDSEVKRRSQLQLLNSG
Procedure: (§1) This example is intended to investigate the in vitro binding activity of anti-human B7H4 H2L2 monoclonal antibody to human/cynomolgus monkey/mouse B7H4. Antibody binding experiments at the cellular level were performed using CHOK1 cell line overexpressing human B7H4 (CHOK1/hu B7H4, Harbour BioMed), CHOK1 cell line overexpressing cynomolgus monkey B7H4 (CHOK1/cyno B7H4, Harbour BioMed), CHOK1 cell line overexpressing mouse B7H4 (CHOK1/m B7H4, Harbour BioMed) and SK-BR-3 cell line (ATCC® HTB-30) highly expressing human B7H4. Briefly, CHOK1/hu B7H4 cells, CHOK1/cyno B7H4 cells, CHOK1/m B7H4 cells or SK-BR-3 cells were digested and resuspended with PBS containing 2% BSA. The cell density was adjusted to 1×10⁶ cells/mL. The cells were seeded in a 96-well V-bottom plate (Corning, #3894) at 100 μL/well, followed by the addition of test antibodies diluted in a 3-fold concentration gradient of 2 times the final concentration, each at 100 μL/well. The cells were incubated at 4° C. for 2 h away from light. Thereafter, the cells in each well were rinsed twice with 100 μL of pre-cooled PBS containing 2% BSA, and centrifuged at 500 g at 4° C. for 5 min, and then the supernatant was discarded. […] Finally, the cells in each well were resuspended with 200 μL of pre-cooled PBS containing 2% BSA, and the fluorescence signal values were read using an ACEA Novocyte3000 flow cytometer.

[3] = molecular target: T3, cynomolgus monkey B7H4 on the cell surface (cynomolgus monkey, UniProt A0A2K5U6P5 25-282); assay: FACS, CHOK1/cyno B7H4 cells
T3 construct: whole, on cells; also called CHOK1/cyno B7H4
T3 sequence: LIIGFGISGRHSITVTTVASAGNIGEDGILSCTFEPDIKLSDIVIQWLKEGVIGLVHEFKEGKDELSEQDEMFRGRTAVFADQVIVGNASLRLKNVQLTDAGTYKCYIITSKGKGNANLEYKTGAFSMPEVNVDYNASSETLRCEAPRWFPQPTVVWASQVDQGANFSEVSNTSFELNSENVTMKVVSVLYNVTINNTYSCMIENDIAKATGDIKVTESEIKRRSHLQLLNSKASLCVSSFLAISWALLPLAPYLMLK
Procedure: as §1

B1: Control antibody 1 (PR000157) (antibody, V domains shown)
VH: EVQLVQSGAEVKKPGASVKVSCKASGYTFTSYWIGWVRQAPGQGLEWIGDIYPGGGYTNYNEKFKGRVTITRDTSTSTAYLELSSLRSEDTAVYYCARLAGSSYRGAMDSWGQGTLVTVSS
VL: DIQMTQSPSSLSASVGDRVTITCKASQGFNKYVAWYQQKPGKAPKLLIYYTSTLQPGVPSRFSGSGSGRDYTLTISSLQPEDFATYYCLQYGDLLYAFGQGTKVEIKR
notes: Anti-B7H4 IgG1 control antibody from WO2016040724A1; also called 1D11.v1.9varC2
Competitive inhibition rate (%) [1]: 1.97% | EC50 [2]: 1.38 nM | Maximum MFI [2]: 858000 MFI | EC50 [3]: 2.1 nM | Maximum MFI [3]: 1.99e+06 MFI
